From PMC5028754 (2016)

B1: Ddi1 RVP-UBA (180-428) (domain or fragment)
chain: QQAIDEQLRNAIEYTPEMFTQVPMLYINIEINNYPVKAFVDTGAQTTIMSTRLAKKTGLSRMIDKRFIGEARGVGTGKIIGRIHQAQVKIETQYIPCSFTVLDTDIDVLIGLDMLKRHLACVDLKENVLRIAEVETSFLSEAEIPKSFQEGLPAPTSVTTSSDKPLTPTKTSSTLPPQPGAVPALAPRTGMGPTPTGRSTAGATTATGRTFPEQTIKQLMDLGFPRDAVVKALKQTNGNAEFAASLLFQ
B2: Ddi1 UBL-RVP (1-325) (domain or fragment)
chain: MDLTISNELTGEIYGPIEVSEDMALTDLIALLQADCGFDKTKHDLYYNMDILDSNRTQSLKELGLKTDDLLLIRGKISNSIQTDAATLSDEAFIEQFRQELLNNQMLRSQLILQIPGLNDLVNDPLLFRERLGPLILQRRYGGYNTAMNPFGIPQDEYTRLMANPDDPDNKKRIAELLDQQAIDEQLRNAIEYTPEMFTQVPMLYINIEINNYPVKAFVDTGAQTTIMSTRLAKKTGLSRMIDKRFIGEARGVGTGKIIGRIHQAQVKIETQYIPCSFTVLDTDIDVLIGLDMLKRHLACVDLKENVLRIAEVETSFLSEAEIPK
B3: full-length yeast Ddi1 (natural protein)
chain: MDLTISNELTGEIYGPIEVSEDMALTDLIALLQADCGFDKTKHDLYYNMDILDSNRTQSLKELGLKTDDLLLIRGKISNSIQTDAATLSDEAFIEQFRQELLNNQMLRSQLILQIPGLNDLVNDPLLFRERLGPLILQRRYGGYNTAMNPFGIPQDEYTRLMANPDDPDNKKRIAELLDQQAIDEQLRNAIEYTPEMFTQVPMLYINIEINNYPVKAFVDTGAQTTIMSTRLAKKTGLSRMIDKRFIGEARGVGTGKIIGRIHQAQVKIETQYIPCSFTVLDTDIDVLIGLDMLKRHLACVDLKENVLRIAEVETSFLSEAEIPKSFQEGLPAPTSVTTSSDKPLTPTKTSSTLPPQPGAVPALAPRTGMGPTPTGRSTAGATTATGRTFPEQTIKQLMDLGFPRDAVVKALKQTNGNAEFAASLLFQ

Key:
bovine ubiquitin [1] = molecular target: T1, bovine ubiquitin (bovine, UniProt P0CG53 1-76); test: ITC
bovine ubiquitin [2] = molecular target: T1, bovine ubiquitin; test: ITC; one-site model, N=2

| Binder | Ka (bovine ubiquitin [1]) [M⁻¹] | Ka (bovine ubiquitin [2]) [M⁻¹] |
| --- | --- | --- |
| B1 | 23400 | – |
| B2 | 3190 | – |
| B3 | – | 3160 |
